{"source": "the DeepSol protein solubility set"}
{"assay": "soluble on expression in E. coli; label from the status in PepcDB or PDB records"}
{"sequence": "MKSAELKYLDFEDFTKLIALAKEKINPIYSSSFMIYIAAMTGMRFSELLGLTWDNVDFEKGQIYVKRTWDIYKNNFAPTKNDQSVRFLAIDSSTMQVMINYKEQQEKLLKRLEIEPEHPFVFYNIKNGLITNNSLNKQLRNMCKKLGFKKIITCHGLRHTHASTMLYKGINILYVSKRLGHSSLNVTMSVYSHILKLEHHHHHH", "soluble on expression in E. coli": "not soluble"}
{"sequence": "RDSGTVWGALGHGINLNIPNFQMTDDIDEVRWERGSTLVAEFKRKMKPFLKSGAFEILANGDLKIKNLTRDDSGTYNVTVYSTNGTRILDKALDLRILE", "soluble on expression in E. coli": "soluble"}
{"sequence": "MPQTERQLRVWIEGATGRRIGDNFMDGLKDGVILCELINKLQPGSVQKVNDPVQNWHKLENIGNFLRAIKHYGVKPHDIFEANDLFENTNHTQVQSTLIALASQAKTK", "soluble on expression in E. coli": "soluble"}
{"sequence": "MAHHHHHHMLRHLPPPRAHPSPAFCHTHARMHLLQAPPSPHPHPTRTPLQTLCVILPPAMQVELSFIFPHALKELPVSFFVPLSSQRPRTVANLFFMCSGQLPLPAELLSALHLTEAEVAYATPAAAKAAGLLPLSDSAVVRIDKASVMEIGSSTTKSIFGGFISDERVTLPAGTAARGQSIAATMSSLKAGTLLYGNLGMPNTQASRYYILLEPVTTPEQRHEFAGFAPLGMVTGGLAELKRAASQTAVQPRTLVPKKKVVVSGCRMQLDYTYLSSSTEASASVSLGGLCDGTGQDAGKQRPTEPHERVAGRVRRRDDDGDEAKQADPRRALDGDGNTTDPGAAPLHSSGFFKISARFPKAAVAASGAGPSLKRRRAEAFVVGDDGVPTLRTTAIAPGEQVGGDGTAEPFEFFKAQQDAFMNDIEGIKDAQLQRFNRKARRIMKSRRAWASSSSSGRHANSQQHSSSSGTHVTGSGALSKTGAKKTKPKRY", "soluble on expression in E. coli": "not soluble"}
{"sequence": "MKIKQALFTAGYSSFYFDDQQAIKNGAGHDGFIYTGDPVTPGFTSVRQAGECVSVQLILENGAVAVGDCAAVQYSGAGGRDPLFLAEHFIPFLNDHIKPLLEGRDVDAFLPNARFFDKLRIDGNLLHTAVRYGLSQALLDATALASGRLKTEVVCDEWQLPCVPEAIPLFGQSGDDRYIAVDKMILKGVDVLPHALINNVEEKLGFKGEKLREYVRWLSDRILSLRSSPRYHPTLHIDVYGTIGLIFDMDPVRCAEYIASLEKEAQGLPLYIEGPVDAGNKPDQIRMLTAITKELTRLGSGVKIVADEWCNTYQDIVDFTDAGSCHMVQIKTPDLGGIHNIVDAVLYCNKHGMEAYQGGTCNETEISARTCVHVALAARPMRMLIKPGMGFDEGLNIVFNEMNRTIALLQTKD", "soluble on expression in E. coli": "soluble"}
{"sequence": "MGSDKIHHHHHHMDEQVTILHTNDIHSHFENWPRIQRYLLTEREQRRQSGSHVITVDLGDAVDRAHPLSEATQGQANVALLNAIGYDAVTIGNNEGLGLTHAALNRLYDRANFDVVLDNLTDTATQRPPQWALPAKIITTARGTRVLLLAFTAPFTLTYPLNGWTPASVKTRFPELLRQYAGQYDVLIVMSHLGINVDRWLAKQFPVIDVVIGSHTHHLLVNGELKNGVLIAAAGKYGEYIGRIELTIDHQHHVKAAAAHTVATASLPIVAGDETLITGWEQQGETLLTRQVVAKVPTQLRPHWHHASDLTALGLAAITDYAKTDLGMLNGGLFMRDLPAGMVNRNDLHTMLPHAMHVIRVTLSGEALWRLVYEMELVRPFLNKFPIKGMGFRGQVFGYIQYQGLTWKTGQHTLLVNGQPVNRQQTYQIALLDHDLFIPFFPTINISGRTEILFEAMLRTVVGDYLMRRWPVK", "soluble on expression in E. coli": "not soluble"}
{"sequence": "MSELDTVIKNAEEIAIQEDEEIIEEVIEEEQVPWLGPTDVMEGQGEYYQSEELLEHEMVEYEDAEPYQSFLPIRDGAPYFSLNLPDLLSKAHQITQDTGVIVRLTSCFNKKCQRQVACGGCLYTIKDYVSDIQWNNWTCINPQCFGEIRTTPDFRDIREVHGHTANCPPPDEIQIAVRIAVYDTRLLAEFTDTPLENLYFGAVERLKIDCADGFVLFPPFEVVKSTLEDHRHNKIYRKRFEMQNLRDKQRKMNMTPDEVVFAENTSGMIRFRRTKPFPMSICNVCGEEISSTNLPSQDQLISHYMYTHGRRMTIERYEFKDVNTFEQYLRELNSMGKYKFKRMGLADENMFYLCSHDDRLNKTGIGRATRLQQQSCHCTAFIRVFDWRVRWKLNNLNYEQITKKSDIYTFNAVCKVEDMCMSLLNRLQDCQNPRVALGYREKIAAIVRKSTTDPGLCDEKSVEEIEKSWVLQKPIRGRPRKRVKLENGQEDGGGDLDEDDDVVMDDYEDGEENGDKKITASRRSESPKPASSSSEPPPPSTTEEASTSLADELPRVTREESTSSNTSGHVAGDVTTRSGRARKPPARLLDD", "soluble on expression in E. coli": "not soluble"}
